Laboratory results: article PMC4644379

Tests used:
[1] = molecular target: NKG2D on human NK cells (human (endogenous in NK cells and CD8+ T cells from PBMC)) (UniProt P26718)
[2] = molecular target: NKG2D on human NK cells (human (endogenous in NK cells and CD8+ T cells from PBMC)) (UniProt P26718); remark: listed apart in the source
[3] = molecular target: NKG2D on human NK cells (human (endogenous in NK cells and CD8+ T cells from PBMC)) (UniProt P26718); remark: listed apart in the source
[4] = molecular target: NKG2D on human NK cells (human (endogenous in NK cells and CD8+ T cells from PBMC)) (UniProt P26718); remark: listed apart in the source
[5] = molecular target: NKG2D on human NK cells (human (endogenous in NK cells and CD8+ T cells from PBMC)) (UniProt P26718); remark: listed apart in the source
[6] = molecular target: NKG2D on human NK cells (human (endogenous in NK cells and CD8+ T cells from PBMC)) (UniProt P26718); remark: listed apart in the source
[7] = molecular target: NKG2D on human NK cells (human (endogenous in NK cells and CD8+ T cells from PBMC)) (UniProt P26718); remark: listed apart in the source

UniProt P26718, sequence (P26718 whole entry): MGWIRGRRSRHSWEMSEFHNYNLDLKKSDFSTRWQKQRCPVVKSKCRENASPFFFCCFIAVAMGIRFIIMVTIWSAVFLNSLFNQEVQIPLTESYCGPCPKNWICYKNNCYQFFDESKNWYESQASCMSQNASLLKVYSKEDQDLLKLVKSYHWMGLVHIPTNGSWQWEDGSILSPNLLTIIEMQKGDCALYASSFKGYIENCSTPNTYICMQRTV

| Substance | IFNγ release (ELISA) of NK cells co-cultured 24 h with L cell clones, difference to L-MICA-129Val, adjusted for MICA expression (pg/ml higher than with L-MICA-129Val) [1] | IFNγ release (ELISA) of NK cells, effect of MICA expression intensity on target clones (pg/ml per MFI unit) [1] | regression coefficient of killing by LAK cells against MICA expression intensity on target clones [2] | down-regulation of NKG2D on CD8+ T cells co-cultured with L cell clones: MFI of NKG2D, difference to L-MICA-129Val (MFI units more than with L-MICA-129Val) [3] | down-regulation of NKG2D on CD8+ T cells co-cultured with L cell clones: proportion of NKG2D+CD3+CD8+ cells, difference to L-MICA-129Val (%-points more than with L-MICA-129Val) [3] | down-regulation of NKG2D on NK cells co-cultured 4 and 24 h with L cell clones: MFI of NKG2D against L-con [4] [MFI units] | down-regulation of NKG2D on NK cells co-cultured 4 and 24 h with L cell clones: percentage of NKG2D+ NK cells against L-con [4] [%-points] | down-regulation of NKG2D on NK cells: percentage of NKG2D+ cells, difference between L-MICA-129Met and L-MICA-129Val targets (%-points against L-MICA-129Val) [4] | regression coefficient of the MFI of CD107a on NK cells against MICA expression intensity on target clones [5] | regression coefficient of the MFI of IFNγ in CD56brightCD16- NK cells against MICA expression intensity [6] | NKG2D expression on CD56brightCD16+ NK cells after 4 and 24 h, lower with L-MICA-129Met than with L-MICA-129Val clones (%-points lower than with L-MICA-129Val) [7] | NKG2D expression on CD56brightCD16- NK cells after 4 and 24 h, lower with L-MICA-129Met than with L-MICA-129Val clones (%-points lower than with L-MICA-129Val) [7] | NKG2D expression on CD56dimCD16+ NK cells after 4 and 24 h, lower with L-MICA-129Met than with L-MICA-129Val clones (%-points lower than with L-MICA-129Val) [7] | IFNγ release (ELISA) of NK cells, effect of MICA expression intensity on target clones (pg/ml per MFI unit of MICA) [1] | relative lysis of L cell clones by LAK cells (51Cr release, E:T 200:1), difference to L-MICA-129Met, adjusted for MICA expression (%-points reduced against L-MICA-129Met) [2] | degranulation of NK cells exposed to L cell clones: MFI of CD107a, difference to L-MICA-129Met, adjusted for MICA expression (MFI units lower than with L-MICA-129Met) [5] | degranulation of NK cells exposed to L cell clones: percentage of CD107a+ NK cells, difference to L-MICA-129Met, adjusted for MICA expression (%-points less than with L-MICA-129Met) [5] | intracellular IFNγ (MFI) in CD56brightCD16- NK cells co-cultured 4 h with L cell clones, difference to L-MICA-129Met (MFI units lower than with L-MICA-129Met) [6] | percentage of IFNγ+ CD56brightCD16- NK cells co-cultured 4 h with L cell clones, difference to L-MICA-129Met (%-points less than with L-MICA-129Met) [6] | regression coefficient of the proportion of IFNγ+ CD56brightCD16- NK cells against MICA expression intensity [6] |
| --- | --- | --- | --- | --- | --- | --- | --- | --- | --- | --- | --- | --- | --- | --- | --- | --- | --- | --- | --- | --- |
| MICA-129Met variant (MICA*00701 allele) expressed on L cells (from UniProt Q29983 24-383) (ligand) | 176 | 0.142 | -0.0834 | 12.1 | 35.8 | 13.7 | 19.4 | -9.3 | 0.05 | -1.11 | 16.2 | 15.8 | 19.5 |  |  |  |  |  |  |  |
| MICA-129Val variant (MICA*00701 with valine at position 129) expressed on L cells (from UniProt Q29983 24-383) (ligand) |  |  | 0.126 |  |  | 11.8 | 9.5 |  | 0.29 | 0.09 |  |  |  | 1.1 | 13 | 38.5 | 10.1 | 12.5 | 7.5 | 0.14 |
